This assay deals with MBP fused to the Tudor domain (residues 1484–1603) of 53BP1 (human, UniProt Q12888 1484-1603). The assay can be described thus: pull-down.

Non-standard residues stand in square brackets, D forms with d. No end group written: not given here. *: point of attachment. Biotin = O=C1N[C@H]2[C@H](CS[C@H]2CCCCC(=O)*)N1; Lys(Me2) = CN(C)CCCC[C@H](N)C(=O)O

MBP fused to the Tudor domain (residues 1484–1603) of 53BP1, sequence (Q12888 1484-1603): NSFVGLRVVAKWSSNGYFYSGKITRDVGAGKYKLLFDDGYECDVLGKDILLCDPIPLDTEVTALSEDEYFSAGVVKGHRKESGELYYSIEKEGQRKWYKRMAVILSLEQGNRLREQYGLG

Broadly, the IC50 is the concentration that gives 50% inhibition. A lower IC50 goes with higher potency. In turn, {Biotin-Mini‑PEG}-YGKGGAKRHR[Lys(Me2)]VLRD [biotin-labeled peptide derived from histone H4K20me2] yielded an IC50 of 100 to 300 µM.

The record behind these values is article PMC5762392 (Nature biotechnology, 2017).
